Experimental data from US6703489 (YALE UNIVERSITY, dated 2004).

B1: Drosophila Serrate, full-length (expression construct Ser-mtn), expressed on Drosophila S2 cells (ligand)
chain: GNFELEILEISNTNSHLLNGYCCGMPAELRATKTIGCSPCTTAFRLCLKEYQTTEQGASISTGCSFGNATTKILGGSSFVLSDPGVGAIVLPFTFRWTKSFTLILQALDMYNTSYPDAERLIEETSYSGVILPSPEWKTLDHIGRNARITYRVRVQCAVTYYNTTCTTFCRPRDDQFGHYACGSEGQKLCLNGWQGVNCEEAICKAGCDPVHGKCDRPGECECRPGWRGPLCNECMVYPGCKHGSCNGSAWKCVCDTNWGGILCDQDLNFCGTHEPCKHGGTCENTAPDKYRCTCAEGLSGEQCEIVEHPCATRPCRNGGTCTLKTSNRTQAQVYRTSHGRSNMGRPVRRSSSMRSLDHLRPEGQALNGSSSSGLVSLGSLQLQQQLAPDFTCDCAAGWTGPTCEINIDECAGGPCEHGGTCIDLIGGFRCECPPEWHGDVCQVDVNECEAPHSAGIAANALLTTTATAIIGSNLSSTALLAALTSAVASTSLAIGPCINAKECRNQPGSFACICKEGWGGVTCAENLDDCVGQCRNGATCIDLVNDYRCACASGFTGRDCETDIDECATSPCRNGGECVDMVGKFNCICPLGYSGSLCEEAKENCTPSPCLEGHCLNTPEGYYCHCPPDRAGKHCEQLRPLCSQPPCNEGCFANVSLATSATTTTTTTTTATTTRKMAKPSGLPCSGHGSCEMSDVGTFCKCHVGHTGTFCEHNLNECSPNPCRNGGICLDGDGDFTCECMSGWTGKRCSERATGCYAGQCQNGGTCMPGAPDKALQPHCRCAPGWTGLFCAEAIDQCRGQPCHNGGTCESGAGWFRCVCAQGFSGPDCRINVNECSPQPCQGGATCIDGIGGYSCICPPGRHGLRCEILLSDPKSACQNASNTISPYTALNRSQNWLDIALTGRTEDDENCNACVCENGTSRCTNLWCGLPNCYKVDPLSKSSNLSGVCKQHEVCVPALSETCLSSPCNVRGDCRALEPSRRVAPPRLPAKSSCWPNQAVVNENCARLTILLALERVGKGASVEGLCSLVRVLLAAQLIKKPASTFGQDPGMLMVLCDLKTGTNDTVELTVSSSKLNDPQLPVAVGLLGELLSSRQLNGIQRRKELELQHAKLAALTSIVEVKLETARVADGSGHSLLIGVLCGVFIVLVGFSVFISLYWKQRLAYRTSSGMNLTPSLDALRHEEEKSNNLQNEENLRRYTNPLKGSTSSLRAATGMELSLNPAPELAASAASSSALHRSQPLFPPCDFERELDSSTGLKQAHKRSSQILLHKTQNSDMRKNTVGSLDSPRKDFGKRSINCKSMPPSSGDEGSDVLATTVMV
notes: also called full-length Serrate
B2: Drosophila Delta, expressed on cells (ligand, Drosophila melanogaster, UniProt P10041 19-833, looked up)
chain: QVHSSGSFELRLKYFSNDHGRDNEGRCCSGESDGATGKCLGSCKTRFRVCLKHYQATIDTTSQCTYGDVITPILGENSVNLTDAQRFQNKGFTNPIQFPFSFSWPGTFSLIVEAWHDTNNSGNARTNKLLIQRLLVQQVLEVSSEWKTNKSESQYTSLEYDFRVTCDLNYYGSGCAKFCRPRDDSFGHSTCSETGEIICLTGWQGDYCHIPKCAKGCEHGHCDKPNQCVCQLGWKGALCNECVLEPNCIHGTCNKPWTCICNEGWGGLYCNQDLNYCTNHRPCKNGGTCFNTGEGLYTCKCAPGYSGDDCENEIYSCDADVNPCQNGGTCIDEPHTKTGYKCHCANGWSGKMCEEKVLTCSDKPCHQGICRNVRPGLGSKGQGYQCECPIGYSGPNCDLQLDNCSPNPCINGGSCQPSGKCICPAGFSGTRCETNIDDCLGHQCENGGTCIDMVNQYRCQCVPGFHGTHCSSKVDLCLIRPCANGGTCLNLNNDYQCTCRAGFTGKDCSVDIDECSSGPCHNGGTCMNRVNSFECVCANGFRGKQCDEESYDSVTFDAHQYGATTQARADGLTNAQVVLIAVFSVAMPLVAVIAACVVFCMKRKRKRAQEKDDAEARKQNEQNAVATMHHNGSGVGVALASASLGGKTGSNSGLTFDGGNPNIIKNTWDKSVNNICASAAAAAAAAAAADECLMYGGYVASVADNNNANSDFCVAPLQRAKSQKQLNTDPTLMHRGSPAGSSAKGASGGGPGAAEGKRISVLGEGSYCSQRWPSLAAAGVAGACSSQLMAAASVAGSGAGTAQQQRSVVCGTPHM
notes: whole, on cells; That entry appears to be only part of Delta, so it was not used for the whole protein on cells; also called Delta expressing cells

What was measured:
[1] = biological target: the molecule itself; assay: cell aggregation assay, S2 cells
[2] = biological target: B1; assay: cell aggregation assay, S2 cells

| Binder | binding result [1] | binding result [2] |
| --- | --- | --- |
| B1 | no binding |  |
| B2 |  | no binding |
